From publication PMC7518097

Biological target: Kv7.2 G279S (human)
Experiment: co-IP; lysates of transfected cells incubated with protein A magnetic beads pre-coated with guinea pig anti-KCNQ2-C2 antibodies; CaM detected by western blot (mouse anti-calmodulin); CaM band normalized to WT

CaM co-immunoprecipitated, normalized to WT (relative to WT): 0.71
Substance: calmodulin (from UniProt P0DP23 1-149) (natural protein)
